Read-outs that look alike come from different tables or passages of the source.
Key:
[1] = molecular target: purified human full-length LRP1 (low-density lipoprotein receptor-related protein 1) (human); assay: ELISA; solid-phase binding; full-length LRP1 (5 nM in TNC) coated on microtiter plates overnight at 4 °C, blocked with 3% BSA; MMPs 0-50 nM for 3 h at room temperature; detected with anti-MMP antibodies and HRP secondary antibody; apparent KD (K_D,app)
[2] = molecular target: purified human full-length LRP1 (low-density lipoprotein receptor-related protein 1) (human)
[3] = molecular target: purified human full-length LRP1 (low-density lipoprotein receptor-related protein 1); assay: competition solid-phase binding assay (ELISA) on immobilized LRP1; conditions: 200 nM proMMP-1(E200A) as competitor of 6 nM proMMP-13(E223A); detection with anti-FLAG M2 antibody; read off a plot
[4] = molecular target: purified human full-length LRP1 (low-density lipoprotein receptor-related protein 1); assay: solid-phase binding assay (ELISA) on immobilized LRP1; conditions: point at 50 nM MMP, read off a plot
[5] = molecular target: LRP1 ligand-binding cluster III (human, UniProt Q07954 2522-2940); assay: ELISA; purified LRP1 fragments (clusters I to IV) coated on microtiter plates; proMMP-13(E223A) or Hpx_(MMP-13) 0-200 nM; detected with anti-MMP-13 181-14G11; extrapolated apparent KD (K_D,app)
LRP1 ligand-binding cluster III, sequence (Q07954 2522-2940): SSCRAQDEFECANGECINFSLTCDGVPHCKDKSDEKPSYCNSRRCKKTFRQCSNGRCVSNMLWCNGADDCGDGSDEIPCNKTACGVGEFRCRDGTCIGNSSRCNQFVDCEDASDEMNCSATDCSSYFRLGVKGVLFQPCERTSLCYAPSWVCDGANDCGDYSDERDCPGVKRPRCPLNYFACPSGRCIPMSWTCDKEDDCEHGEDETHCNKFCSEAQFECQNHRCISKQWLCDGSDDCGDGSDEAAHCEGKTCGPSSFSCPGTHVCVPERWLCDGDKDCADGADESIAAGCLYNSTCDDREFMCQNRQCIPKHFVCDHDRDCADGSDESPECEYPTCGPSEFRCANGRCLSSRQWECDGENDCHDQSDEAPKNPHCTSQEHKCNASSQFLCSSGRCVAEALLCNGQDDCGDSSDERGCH

[6] = molecular target: T1, LRP1 ligand-binding cluster II (human, UniProt Q07954 852-1182); assay: as above
T1 construct: also called soluble LRP1 cluster II
T1 sequence (looked up): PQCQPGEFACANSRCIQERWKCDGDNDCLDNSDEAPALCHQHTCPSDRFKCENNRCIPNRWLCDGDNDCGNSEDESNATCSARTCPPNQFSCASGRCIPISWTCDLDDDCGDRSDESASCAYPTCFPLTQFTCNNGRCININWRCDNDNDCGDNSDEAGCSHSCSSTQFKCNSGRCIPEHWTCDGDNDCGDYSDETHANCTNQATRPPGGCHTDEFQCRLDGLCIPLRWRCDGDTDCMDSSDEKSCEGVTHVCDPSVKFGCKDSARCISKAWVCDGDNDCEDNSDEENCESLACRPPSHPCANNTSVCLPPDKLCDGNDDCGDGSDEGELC

[7] = molecular target: LRP1 ligand-binding cluster IV (human) (UniProt Q07954); assay: as above
LRP1 ligand-binding cluster IV (human), sequence (Q07954 20-4544): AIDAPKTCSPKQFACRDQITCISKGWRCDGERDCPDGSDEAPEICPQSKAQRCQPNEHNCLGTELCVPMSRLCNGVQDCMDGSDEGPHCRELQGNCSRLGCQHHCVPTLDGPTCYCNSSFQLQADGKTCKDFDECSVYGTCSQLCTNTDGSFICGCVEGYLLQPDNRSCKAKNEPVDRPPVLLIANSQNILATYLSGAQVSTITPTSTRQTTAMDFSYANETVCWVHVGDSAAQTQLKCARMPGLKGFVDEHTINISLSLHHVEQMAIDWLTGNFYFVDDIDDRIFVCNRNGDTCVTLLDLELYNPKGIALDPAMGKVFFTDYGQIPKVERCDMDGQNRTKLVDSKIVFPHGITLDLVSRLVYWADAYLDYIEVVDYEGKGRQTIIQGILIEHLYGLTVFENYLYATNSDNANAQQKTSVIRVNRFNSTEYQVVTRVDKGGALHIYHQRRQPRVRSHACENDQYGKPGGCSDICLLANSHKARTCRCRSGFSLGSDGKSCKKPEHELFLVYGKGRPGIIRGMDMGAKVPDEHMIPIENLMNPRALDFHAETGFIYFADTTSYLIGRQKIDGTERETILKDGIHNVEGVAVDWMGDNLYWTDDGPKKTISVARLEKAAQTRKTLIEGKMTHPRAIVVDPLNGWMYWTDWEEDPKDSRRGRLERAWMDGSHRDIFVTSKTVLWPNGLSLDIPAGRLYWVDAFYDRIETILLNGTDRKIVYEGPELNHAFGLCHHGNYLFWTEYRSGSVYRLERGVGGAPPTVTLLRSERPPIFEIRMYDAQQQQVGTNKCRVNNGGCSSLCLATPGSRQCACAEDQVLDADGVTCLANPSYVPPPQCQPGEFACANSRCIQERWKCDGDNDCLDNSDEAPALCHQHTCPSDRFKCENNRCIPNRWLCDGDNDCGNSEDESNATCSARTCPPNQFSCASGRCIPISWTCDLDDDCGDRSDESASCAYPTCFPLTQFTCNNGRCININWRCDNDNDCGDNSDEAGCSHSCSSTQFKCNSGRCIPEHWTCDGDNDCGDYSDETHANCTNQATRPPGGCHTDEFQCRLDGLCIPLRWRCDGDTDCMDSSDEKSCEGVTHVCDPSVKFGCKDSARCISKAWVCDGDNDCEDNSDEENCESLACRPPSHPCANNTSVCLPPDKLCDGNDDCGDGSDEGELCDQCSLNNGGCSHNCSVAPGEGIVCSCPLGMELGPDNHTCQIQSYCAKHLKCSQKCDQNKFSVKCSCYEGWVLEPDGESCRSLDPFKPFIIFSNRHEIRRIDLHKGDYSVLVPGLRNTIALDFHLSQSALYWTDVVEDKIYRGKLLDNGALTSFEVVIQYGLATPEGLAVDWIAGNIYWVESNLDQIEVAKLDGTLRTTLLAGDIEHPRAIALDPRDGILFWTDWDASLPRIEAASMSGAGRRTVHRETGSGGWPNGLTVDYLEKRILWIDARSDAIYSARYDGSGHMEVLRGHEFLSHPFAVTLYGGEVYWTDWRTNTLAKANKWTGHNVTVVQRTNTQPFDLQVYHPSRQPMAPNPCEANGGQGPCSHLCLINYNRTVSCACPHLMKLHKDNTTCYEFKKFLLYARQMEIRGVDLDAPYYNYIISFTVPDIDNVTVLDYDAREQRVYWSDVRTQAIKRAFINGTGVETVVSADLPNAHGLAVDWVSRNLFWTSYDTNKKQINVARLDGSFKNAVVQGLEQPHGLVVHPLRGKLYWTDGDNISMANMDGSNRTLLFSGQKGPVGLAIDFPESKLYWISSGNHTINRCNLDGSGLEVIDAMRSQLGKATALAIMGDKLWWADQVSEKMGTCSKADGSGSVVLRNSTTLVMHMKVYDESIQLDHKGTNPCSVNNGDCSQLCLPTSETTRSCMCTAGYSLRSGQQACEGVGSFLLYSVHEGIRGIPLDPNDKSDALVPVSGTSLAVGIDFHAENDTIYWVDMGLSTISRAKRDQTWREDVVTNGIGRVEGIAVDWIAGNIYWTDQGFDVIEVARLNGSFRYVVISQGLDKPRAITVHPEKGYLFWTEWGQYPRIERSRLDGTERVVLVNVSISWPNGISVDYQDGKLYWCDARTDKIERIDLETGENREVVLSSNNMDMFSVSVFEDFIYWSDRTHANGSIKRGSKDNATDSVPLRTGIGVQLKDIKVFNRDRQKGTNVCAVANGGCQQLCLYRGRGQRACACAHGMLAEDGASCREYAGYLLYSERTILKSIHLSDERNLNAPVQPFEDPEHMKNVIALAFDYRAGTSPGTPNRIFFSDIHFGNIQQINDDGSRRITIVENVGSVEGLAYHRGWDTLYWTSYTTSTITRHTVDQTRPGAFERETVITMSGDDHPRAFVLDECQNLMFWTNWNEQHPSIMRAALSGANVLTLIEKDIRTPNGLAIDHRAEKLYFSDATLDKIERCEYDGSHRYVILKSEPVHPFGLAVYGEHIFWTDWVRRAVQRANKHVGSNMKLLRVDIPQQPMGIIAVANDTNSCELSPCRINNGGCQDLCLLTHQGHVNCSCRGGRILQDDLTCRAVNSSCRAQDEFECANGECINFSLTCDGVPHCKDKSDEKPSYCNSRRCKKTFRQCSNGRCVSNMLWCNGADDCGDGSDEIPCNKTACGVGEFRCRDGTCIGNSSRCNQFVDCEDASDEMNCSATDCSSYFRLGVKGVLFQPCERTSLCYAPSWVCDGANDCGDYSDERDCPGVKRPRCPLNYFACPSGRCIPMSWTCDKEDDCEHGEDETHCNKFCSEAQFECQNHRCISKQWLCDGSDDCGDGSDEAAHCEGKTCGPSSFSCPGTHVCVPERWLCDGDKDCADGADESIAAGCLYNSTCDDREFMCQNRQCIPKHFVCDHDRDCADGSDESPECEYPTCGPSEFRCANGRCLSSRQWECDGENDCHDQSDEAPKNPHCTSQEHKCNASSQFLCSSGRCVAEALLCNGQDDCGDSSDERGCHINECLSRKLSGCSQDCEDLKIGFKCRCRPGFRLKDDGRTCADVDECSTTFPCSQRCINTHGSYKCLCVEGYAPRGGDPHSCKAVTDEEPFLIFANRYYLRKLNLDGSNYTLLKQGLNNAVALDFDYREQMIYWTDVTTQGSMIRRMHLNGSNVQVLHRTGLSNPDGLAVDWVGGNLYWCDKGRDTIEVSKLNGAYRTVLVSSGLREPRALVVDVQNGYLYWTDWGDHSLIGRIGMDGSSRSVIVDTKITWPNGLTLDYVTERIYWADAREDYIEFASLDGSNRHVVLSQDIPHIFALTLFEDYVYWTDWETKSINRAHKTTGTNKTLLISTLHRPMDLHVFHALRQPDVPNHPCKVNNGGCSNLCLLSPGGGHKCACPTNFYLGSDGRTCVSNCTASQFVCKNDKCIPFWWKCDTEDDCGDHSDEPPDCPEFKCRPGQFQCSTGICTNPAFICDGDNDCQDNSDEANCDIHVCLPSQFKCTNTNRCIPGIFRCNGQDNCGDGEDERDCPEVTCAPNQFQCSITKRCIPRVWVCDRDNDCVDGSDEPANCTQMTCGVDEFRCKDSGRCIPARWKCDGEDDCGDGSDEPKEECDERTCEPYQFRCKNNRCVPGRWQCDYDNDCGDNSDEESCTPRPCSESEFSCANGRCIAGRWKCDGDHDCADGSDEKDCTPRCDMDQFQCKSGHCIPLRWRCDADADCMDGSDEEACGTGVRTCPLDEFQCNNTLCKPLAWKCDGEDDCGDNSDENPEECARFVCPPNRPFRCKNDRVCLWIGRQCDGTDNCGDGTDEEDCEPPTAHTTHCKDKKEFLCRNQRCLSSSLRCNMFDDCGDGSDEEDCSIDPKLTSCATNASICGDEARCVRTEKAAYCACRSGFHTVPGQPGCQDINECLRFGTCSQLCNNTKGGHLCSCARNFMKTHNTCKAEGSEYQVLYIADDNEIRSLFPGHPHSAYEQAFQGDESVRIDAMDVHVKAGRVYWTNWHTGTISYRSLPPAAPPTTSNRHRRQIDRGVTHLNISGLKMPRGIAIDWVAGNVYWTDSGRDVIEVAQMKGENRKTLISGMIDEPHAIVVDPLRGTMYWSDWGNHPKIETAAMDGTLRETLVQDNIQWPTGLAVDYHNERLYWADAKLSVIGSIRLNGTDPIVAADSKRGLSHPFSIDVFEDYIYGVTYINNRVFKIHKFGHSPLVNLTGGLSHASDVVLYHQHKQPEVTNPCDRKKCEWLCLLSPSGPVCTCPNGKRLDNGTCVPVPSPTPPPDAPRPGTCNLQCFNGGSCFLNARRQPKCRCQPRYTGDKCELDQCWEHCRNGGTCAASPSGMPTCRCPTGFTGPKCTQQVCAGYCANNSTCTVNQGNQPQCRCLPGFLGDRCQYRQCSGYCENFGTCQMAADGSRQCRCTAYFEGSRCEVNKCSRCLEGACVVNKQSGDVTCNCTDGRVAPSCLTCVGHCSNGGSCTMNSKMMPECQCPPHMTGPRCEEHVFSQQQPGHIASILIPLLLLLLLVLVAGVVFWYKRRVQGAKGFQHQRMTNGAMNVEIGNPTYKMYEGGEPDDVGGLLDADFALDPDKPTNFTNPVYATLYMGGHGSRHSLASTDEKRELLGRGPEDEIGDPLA

[8] = molecular target: LRP1 ligand-binding cluster I (human) (UniProt Q07954); assay: as above
LRP1 ligand-binding cluster I (human), sequence (Q07954 20-4544): as above

[9] = molecular target: purified human full-length LRP1 (low-density lipoprotein receptor-related protein 1) (human); assay: ELISA; full-length LRP1 coated; proMMP-13(E223A) 0-40 nM in the absence or presence of 50 nM ADAMTS-5, 250 nM ADAMTS-4 or 50 nM TIMP-3 plus 50 μM CT1746; apparent KD (K_D,app)

What does the source list for “proMMP-13(WT), MMP-13 with a FLAG tag between the signal and propeptide (enzyme)”?
Kd [1]: 5.9 nM; proMMP-13 (10 nM) found in the cell lysate after 1 h with human chondrocytes at 4 °C (surface binding); abolished in the presence of 500 nM RAP [2]: 25%

With “proMMP-13(WT), MMP-13 with a FLAG tag between the signal and propeptide” as the molecule, how does the clearance of 10 nM exogenous proMMP-13 from the medium of human chondrocytes, 0-4 h, Western blot; inhibited by 500 nM RAP and in LRP1-silenced cells [2] read?
The clearance of 10 nM exogenous proMMP-13 from the medium of human chondrocytes, 0-4 h, Western blot; inhibited by 500 nM RAP and in LRP1-silenced cells was 70 min.

Which other: ProMMP-13 bound to LRP1 (% of amount bound without competitor) [3] does the source give for proMMP-1 E200A here?
The other: ProMMP-13 bound to LRP1 (% of amount bound without competitor) was 100%.

What about the response (absorbance at 450 nm) ([4]; detection with anti-MMP-1 (SB12e) antibody) of the same molecule?
Its response (absorbance at 450 nm) is 0.13.

For proMMP-3 E202A, which response (absorbance at 450 nm) ([4]; detection with anti-MMP-3 (4B7.3) antibody) is on record?
Its response (absorbance at 450 nm) is 0.25.

For “proMMP-1-1-13(E200A) (MMP-1_(1-258)-MMP-13_(264-451)) (enzyme)”, which Kd [1] is on record?
The Kd was 5.1 nM.

What does the source list for “proMMP-13(E223A) (from UniProt P45452 20-471) (enzyme)”?
Kd [1]: 6 nM; Kd [5]: 24 nM; Kd [6]: 17 nM; Kd [7]: > 100 nM; Kd [8]: > 200 nM; K D,app in the presence of 50 nM ADAMTS-5 [9]: 5.2 nM; K D,app in the presence of 50 nM TIMP-3 [9]: 8.2 nM; K D,app in the presence of 250 nM ADAMTS-4 [9]: 5.6 nM

Which Kd [1] does the source give for “MMP-13(E223A), activated form (from UniProt P45452 104-471) (enzyme)” here?
The Kd was 3.8 nM.

B1: hemopexin domain of MMP-13 (Hpx_(MMP-13)) (domain or fragment, human, UniProt P45452 284-471, looked up)
chain: CDPSLSLDAITSLRGETMIFKDRFFWRLHPQQVDAELFLTKSFWPELPNRIDAAYEHPSHDLIFIFRGRKFWALNGYDILEGYPKKISELGLPKEVKKISAAVHFEDTGKTLLFSGNQVWRYDDTNHIMDKDYPRLIEEDFPGIGDKVDAVYEKNGYIYFFNGPIQFEYSIWSNRIVRVMPANSILWC
notes: MMP-13 (collagenase 3), human, hemopexin domain released by autolysis; also called Hpx domain of MMP-13; source: from proMMP-13 incubated with 1 mM APMA at 37 °C for at least 16 h
B1 was tested. Which Kd [1] did it give?
Its Kd is 2.7 nM.

And the Kd ([5]; both partners purified)?
The Kd was 13 nM.

What about the Kd ([6]; both partners purified) of the same molecule?
The Kd was 15 nM.

And the Kd [7]?
The Kd was over 50 nM.

What about the Kd [8] of the same molecule?
The Kd was over 200 nM.

— article PMC5146981, “MMP-13 is constitutively produced in human chondrocytes and co-endocytosed with ADAMTS-5 and TIMP-3 by the endocytic receptor LRP1” (Matrix Biology, 2016)
